This passage reports ratio of HA to GFP band intensity results from paper doi:10.1101/2022.11.04.515170.

The target of one experiment is GFP-SNX4 (UniProt O95219). The experiment is described as follows: co-IP.
A further experiment concerns the target T1, GFP-SNX4, O95219.
T1 chain: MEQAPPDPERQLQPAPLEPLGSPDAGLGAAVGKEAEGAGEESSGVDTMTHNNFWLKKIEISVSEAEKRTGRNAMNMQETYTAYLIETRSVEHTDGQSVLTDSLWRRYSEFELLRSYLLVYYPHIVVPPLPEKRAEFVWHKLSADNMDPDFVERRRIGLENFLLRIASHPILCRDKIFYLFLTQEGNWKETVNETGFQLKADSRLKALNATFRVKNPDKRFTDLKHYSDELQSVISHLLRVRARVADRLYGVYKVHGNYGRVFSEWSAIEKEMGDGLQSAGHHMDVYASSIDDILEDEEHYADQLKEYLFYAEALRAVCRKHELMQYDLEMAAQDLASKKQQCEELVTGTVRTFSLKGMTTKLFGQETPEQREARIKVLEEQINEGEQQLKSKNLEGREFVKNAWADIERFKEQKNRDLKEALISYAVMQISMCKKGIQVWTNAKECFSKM
The experiment is described as follows: co-IP. The settings on record: remark: other sources report otherwise.

Regarding “HA-SNX32 A226E (from UniProt Q86XE0 1-403) (natural protein)”, the ratio of HA to GFP band intensity with GFP-SNX4 was determined as 0.65.

B1: HA-SNX32 FL, Q86XE0 1-403 (natural protein)
chain: METYAEVGKEGKPSCASVDLQGDSSLQVEISDAVSERDKVKFTVQTKSCLPHFAQTEFSVVRQHEEFIWLHDAYVENEEYAGLIIPPAPPRPDFEASREKLQKLGEGDSSVTREEFAKMKQELEAEYLAIFKKTVAMHEVFLQRLAAHPTLRRDHNFFVFLEYGQDLSVRGKNRKELLGGFLRNIVKSADEALITGMSGLKEVDDFFEHERTFLLEYHTRIRDACLRADRVMRAHKCLADDYIPISAALSSLGTQEVNQLRTSFLKLAELFERLRKLEGRVASDEDLKLSDMLRYYMRDSQAAKDLLYRRLRALADYENANKALDKARTRNREVRPAESHQQLCCQRFERLSDSAKQELMDFKSRRVSSFRKNLIELAELELKHAKASTLILRNTLVALKGEP
On to B1, for which the ratio of HA to GFP band intensity with GFP-SNX4, O95219 was found to be 0.92.
